Target: baker's yeast alcohol dehydrogenase (baker's yeast) (UniProt P00330)
Experiment: native MS; nano-ESI from 0.2 mol/L ammonium acetate, protein 2 to 5 x 10^-6 mol/L, Q Exactive UHMR modified for deposition

stoichiometry N: 4
Substance: baker's yeast alcohol dehydrogenase (from UniProt P00330 1-348) (enzyme)
